Reference: patent US6602687B1, “DNA encoding human ciliary neurotrophic factor and method for producing the protein encoded thereby” (Regeneron Pharmaceuticals, Inc., priority 1989, dated 2003)

What was measured:
[1] = tested on: AchE-containing ventral spinal cord neurons; experiment: Count of AchE-containing neurons in ventral spinal cord cultures; assay type: cell-based, rat; conditions: CNTF 10 ng/ml at plating; 7 days
Description: (§1) Sprague-Dawley rats (HSD or Zivic-Miller) were used for all experiments. Pregnant rats (E14) were sacrificed as described in 10.1.1.
Spinal cords were removed aseptically from rat embryos as described in 10.1.2. The cord tissues were minced into small pieces and incubated in 0.1% trypsin (GIBCO) and 0.01% deoxyribonuclease type 1 (Sigma) at 37° C. for 20 minutes. Trypsin solution was then removed, rinsed and replaced with medium consisting of 45% Eagle's minimum essential medium (MEM), 45% Ham's nutrient mixture F12 (F12), 5% fetal calf serum (GIBCO), 5% horse serum (GIBCO) glutamine (2 mM), penicillin G (0.5 U/ml), and streptomycin (0.5 ug/ml). This was then mechanically dissociated twice by gentle trituration through a Pasteur pipet in the same medium, and the supernatants were pooled and filtered through a nylon filter (Nitex, Tetko; 40 um). Total cell number yielded was determined by hemocytometer counting in the presence of trypan blue. Dissociated ventral cells were then plated at a density of approximately 50,000 cells/cm^2 on dishes coated with poly-L-ornithine (10 ug/ml) and laminin (5 ug/ml). Treatments were given on the day of plating, except for delayed addition experiments in which treatments were given on days 2 or 6. Cultures were maintained at 37° C. in 95% air/5% CO2 atmosphere at nearly 100% relative humidity. Culture medium was changed every 3 to 4 days. […]

[2] = tested on: Ventral spinal cord neurons; experiment: E14 rat ventral spinal cord neuron cultures in defined medium; assay type: cell-based; conditions: CNTF 2 μl/ml
Excerpt: Sprague-Dawley rats (HSD) were used for all experiments. Pregnant rats were sacrificed by carbon dioxide asphyxiation, and the embryos were rapidly removed and placed in ice-cold Puck's saline G for further dissection.
Spinal cords were removed aseptically from rat embryos on the 14th day of gestation. The spinal cord was severed caudal to the bulb, freed of sensory ganglia and meninges. The cord was then subdivided into ventral and mediodorsal segments for separate cultures. The cord tissues were minced into small pieces and mechanically dissociated by trituration through a Pasteur pipet in defined culture medium consisting of 50% basal medium Eagle (BME; Gibco) and 50% Ham's nutrient mixture F12 (Gibco) supplemented with glucose (33 mM), glutamine (2 mM, NaHCO3 (15 mM), HEPES (10 mM), insulin (25 μg/ml), transferrin (100 μg/ml) putrescine (60 μM), progesterone (20 nM), Na selenite (30 nM), penicillin G (0.5 μg/ml), streptomycin (0.5 μg/ml), and bovine serum albumin (2.5 μg/ml). Trituration was repeated twice and the supernatants were pooled and filtered through a nylon (Nitex, Tetko) filter (40 μm). Total cell number yielded was determined by hemocytometer counting in the presence of trypan blue. Dissociated ventral cells were then plated at a density of 0.5 million cells/35 mm dish coated with poly-D-lysine (10 μg/ml). Dissociated mediodorsal cells were plated at a density of 1.5 million/35 mm dish coated with poly-D-lysine (10 μg/ml), poly-L-ornithine (10 μg/ml), or poly-L-ornithine with laminin (5 μg/ml). Treatments to these cultures were added at the time of plating. Cultures were maintained at 37° C. in a 95% air/5% CO2 atmosphere at nearly 100% relative humidity. Culture medium was changed every three to four days.

[3] = tested on: Ventral spinal cord neurons; experiment: Choline acetyltransferase (CAT) activity in ventral spinal cord cultures; assay type: cell-based, rat
Description: as §1
Spinal cords were removed aseptically from rat embryos as described in 10.1.2. The cord tissues were minced into small pieces and incubated in 0.1% trypsin (GIBCO) and 0.01% deoxyribonuclease type 1 (Sigma) at 37° C. for 20 minutes. Trypsin solution was then removed, rinsed and replaced with medium consisting of 45% Eagle's minimum essential medium (MEM), 45% Ham's nutrient mixture F12 (F12), 5% fetal calf serum (GIBCO), 5% horse serum (GIBCO) glutamine (2 mM), penicillin G (0.5 U/ml), and streptomycin (0.5 ug/ml). This was then mechanically dissociated twice by gentle trituration through a Pasteur pipet in the same medium, and the supernatants were pooled and filtered through a nylon filter (Nitex, Tetko; 40 um). Total cell number yielded was determined by hemocytometer counting in the presence of trypan blue. Dissociated ventral cells were then plated at a density of approximately 50,000 cells/cm^2 on dishes coated with poly-L-ornithine (10 ug/ml) and laminin (5 ug/ml). Treatments were given on the day of plating, except for delayed addition experiments in which treatments were given on days 2 or 6. Cultures were maintained at 37° C. in 95% air/5% CO2 atmosphere at nearly 100% relative humidity. Culture medium was changed every 3 to 4 days. A mitotic inhibitor, cytosine arabinoside (Ara C; 0.5 uM), was added on day 2 to reduce the number of nonneuronal cells. On day 7, cells were harvested for measurements of choline acetyltransferase (CAT; Fonnum, 1975 J. Neurochem. 24:407-409) and protein (Bradford, 1976, Annal. Biochem. 72:248-254) levels or fixed in 4% paraformaldehyde for NF assay (Doherty et al., 1984, J. Neurochem. 42:1116-1122) and immunocytochemistry. Some cultures were grown in defined medium consisting of 50% F12 and 50% MEM, glutamine (2 mM), insulin (5 ug/ml), transferrin (100 ug/ml), progesterone (20 nM), putrescine (10 uM), and sodium selenite (30 nM) (Bottenstein and Sato, 1979, PNAS 76:514-517). In these cultures sera-containing medium was replaced with defined medium on day 1.
Cultures were harvested by lysing the cells in a 20 mM Tris-HCl (pH 8.6) solution containing 0.1% Triton X-100. Two microliters of the cell lysate was removed and assayed for CAT activity according to the micro-Fonnum procedure (Fonnum, 1975, J. Neurochem. 24:407-409). The final substrate composition consisted of 0.2 mM [1-^14C] Acetyl-CoA (NEN, 54.4 mCi/mmol), 300 mM NaCl, 8 mM choline bromide, 20 mM EDTA, and 0.1 mM neostigmine in 50 mM NaH2PO4 (pH 7.4) buffer. At these enzyme and substrate concentrations, the enzymatic reaction was linear for 90-120 minutes. The specificity of the induction for CAT was tested by the addition of a specific inhibitor of CAT activity, N-hydroxyethyl-4-(1-napthylvinyl) pyridium (HNP), during the assay (White and Cavallito, 1970, J. Neurochem. 17:1579-1589).

B1: CNTF: ciliary neurotrophic factor; recombinant rat CNTF in Sections 10, 15, 17, purified rat sciatic nerve CNTF in Section 11; see endpoint conditions (protein, UniProt P20294 1-200, looked up)
Ciliary neurotrophic factor: MAFAEQTPLTLHRRDLCSRSIWLARKIRSDLTALMESYVKHQGLNKNINLDSVDGVPVASTDRWSEMTEAERLQENLQAYRTFQGMLTKLLEDQRVHFTPTEGDFHQAIHTLMLQVSAFAYQLEELMVLLEQKIPENEADGMPATVGDGGLFEKKLWGLKVLQELSQWTVRSIHDLRVISSHQMGISALESHYGAKDKQM
increase in AchE-positive neurons versus untreated controls [1]: 2.5 fold
time ventral neurons survive in defined medium [2]: > 1 week
CAT Activity ([2]; NGF 50 ng/ml at plating, day 7): 959.5 ± 24.32 CPM/dish
Protein ([2]; NGF 50 ng/ml at plating, day 7): 45 μg/dish
time after treatment at which increase in CAT activity was apparent [3]: 3 days
effect on CAT activity with glia reduced to about 5% of total cells ([3]; AraC 0.5 uM or serum-free medium, CNTF 10 ng/ml): remained unchanged
increase in CAT activity over the increase in number of cholinergic neurons ([3]; CNTF 10 ng/ml): 1.6 fold
increase in CAT activity, delayed addition at day 2 ([3]; CNTF 10 ng/ml added on day 2, treated 7 further days): 1.2 fold
effect on CAT activity, delayed addition at day 6 ([3]; CNTF 10 ng/ml added on day 6, treated 7 further days): can no longer influence CAT activity
increase in CAT activity ([3]; CNTF 10 ng/ml, NGF 50 ng/ml, FGF 50 ng/ml at plating, after 7 days in culture): 4.0 fold
CNTF concentration of maximal response in CAT activity ([3]; day 7): 1 ng/mL
